The results in this text go back to PMC8268124, “Structure and Function of Piezophilic Hyperthermophilic Pyrococcus yayanosii pApase” (International Journal of Molecular Sciences, 2021).

Substrate in the data set: Nc1ncnc2c1ncn2[C@@H]1O[C@H](COP(=O)(O)O)[C@@H](OP(=O)(O)O)[C@H]1O
As to the kind of experiment: HPLC of AMP product, initial rates, double reciprocal plot. It is filed as biochemical, Pyrococcus yayanosii. The note with it: 20 mM Tris-HCl pH 8.0, 50 mM NaCl, 1.0 mM MnCl2, 1.0 mM DTT, 100 µg/mL BSA, 70 °C. From the text:
HPLC of AMP product, initial rates, double reciprocal plot on PyapApase

B1: PyapApase (Pyrococcus yayanosii CH1) (protein)
chain: MLALIIHHWDTDGITTAALLVRALELGDFKNMTPPIGEFRFDGKIWAAIERADKLYVLDLNLPQEVEKVPVETLFIDHHIQPRIKNPRVRQVNPALEGKHYPSASLVVSEHFGIFNAWSALGAVGDIGEKAFELSRVEELLKGEGLSREDALKLVELIDSNYIVMDRMAVEEALHVLLNYELRELLEYEPWIRRVEAIKEAVEEVMSSVEERNGFAIVDFESPFNIISKVARKLVWEKGYRGAVVVNRNFHGKAQVYFRVSPKEAERISVLTIIGKLRGLGVNAGGKREVIGCICERGKLDEVLSVIDAYLG
Usually Km stands for the concentration of substrate that gives half-maximal velocity. As to B1, the Km is 272 ± 12.6 µM.

B2: PyapApase (Pyrococcus yayanosii CH1; G285D) (protein)
chain: MLALIIHHWDTDGITTAALLVRALELGDFKNMTPPIGEFRFDGKIWAAIERADKLYVLDLNLPQEVEKVPVETLFIDHHIQPRIKNPRVRQVNPALEGKHYPSASLVVSEHFGIFNAWSALGAVGDIGEKAFELSRVEELLKGEGLSREDALKLVELIDSNYIVMDRMAVEEALHVLLNYELRELLEYEPWIRRVEAIKEAVEEVMSSVEERNGFAIVDFESPFNIISKVARKLVWEKGYRGAVVVNRNFHGKAQVYFRVSPKEAERISVLTIIGKLRGLGVNADGKREVIGCICERGKLDEVLSVIDAYLG
For B2, the Km turned out to be 4500 ± 607.7 µM.

B3: PyapApase (Pyrococcus yayanosii CH1; D12A) (protein)
chain: MLALIIHHWDTAGITTAALLVRALELGDFKNMTPPIGEFRFDGKIWAAIERADKLYVLDLNLPQEVEKVPVETLFIDHHIQPRIKNPRVRQVNPALEGKHYPSASLVVSEHFGIFNAWSALGAVGDIGEKAFELSRVEELLKGEGLSREDALKLVELIDSNYIVMDRMAVEEALHVLLNYELRELLEYEPWIRRVEAIKEAVEEVMSSVEERNGFAIVDFESPFNIISKVARKLVWEKGYRGAVVVNRNFHGKAQVYFRVSPKEAERISVLTIIGKLRGLGVNAGGKREVIGCICERGKLDEVLSVIDAYLG
What is called kcat is the number of substrate molecules converted per active site and unit of time at saturation. The term kcat/Km denotes the second-order rate constant that governs catalysis at low substrate concentration. B3: the Km was 790 ± 47.7 µM, the kcat was 1.7 ± 0.3 s⁻¹ and the kcat/Km was 2160 M⁻¹ s⁻¹.

B4: PyapApase (Pyrococcus yayanosii CH1; K287A) (protein)
chain: MLALIIHHWDTDGITTAALLVRALELGDFKNMTPPIGEFRFDGKIWAAIERADKLYVLDLNLPQEVEKVPVETLFIDHHIQPRIKNPRVRQVNPALEGKHYPSASLVVSEHFGIFNAWSALGAVGDIGEKAFELSRVEELLKGEGLSREDALKLVELIDSNYIVMDRMAVEEALHVLLNYELRELLEYEPWIRRVEAIKEAVEEVMSSVEERNGFAIVDFESPFNIISKVARKLVWEKGYRGAVVVNRNFHGKAQVYFRVSPKEAERISVLTIIGKLRGLGVNAGGAREVIGCICERGKLDEVLSVIDAYLG
As for B4, the Km is 720 ± 33.1 µM, the kcat stood at 17.10 ± 2.1 s⁻¹ and the catalytic efficiency (kcat/Km) is 23800 M⁻¹ s⁻¹.

B5: PyapApase (Pyrococcus yayanosii CH1; R259A) (protein)
chain: MLALIIHHWDTDGITTAALLVRALELGDFKNMTPPIGEFRFDGKIWAAIERADKLYVLDLNLPQEVEKVPVETLFIDHHIQPRIKNPRVRQVNPALEGKHYPSASLVVSEHFGIFNAWSALGAVGDIGEKAFELSRVEELLKGEGLSREDALKLVELIDSNYIVMDRMAVEEALHVLLNYELRELLEYEPWIRRVEAIKEAVEEVMSSVEERNGFAIVDFESPFNIISKVARKLVWEKGYRGAVVVNRNFHGKAQVYFAVSPKEAERISVLTIIGKLRGLGVNAGGKREVIGCICERGKLDEVLSVIDAYLG
With B5, the Michaelis constant (Km) is 6000 ± 753.4 µM.
